No end group written: not given here.
Target: T1, p300 BRP (Homo sapiens, UniProt Q09472)
T1 sequence (Q09472 1048-1282): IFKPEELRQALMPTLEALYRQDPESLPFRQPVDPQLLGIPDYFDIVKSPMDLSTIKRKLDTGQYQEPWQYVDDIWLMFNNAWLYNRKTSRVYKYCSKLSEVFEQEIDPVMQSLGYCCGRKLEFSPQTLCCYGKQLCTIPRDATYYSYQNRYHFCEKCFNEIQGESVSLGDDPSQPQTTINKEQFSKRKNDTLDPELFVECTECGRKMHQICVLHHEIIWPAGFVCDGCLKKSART
Experiment: ITC of histone and AIL peptides with p300 BRP
Assay type: binding
Details: p300 BRP module; for Binding by ITC, result in words (printed in column N): Kd cell prints --

Substance | Binding by ITC, result in words (printed in column N) | Kd (μM) (mean and s.d. of experiments in triplicate)
AIL K1549K1558K1560tri-ac (1545-1562): p300 autoinhibitory loop peptide 1545-1562 acetylated on K1549, K1558, K1560 (SKNAK(Ac)KKNNKKTSK(Ac)NK(Ac)SS) | No binding | –
ARTKQTQRKSTGGKAPRKQL [H3 unmodified (1-20)] | No binding | –
H3 K4me1 (1-20): histone H3 peptide 1-20, K4me1 | No binding | –
H3T11pho (1-20): histone H3 peptide 1-20, T11 phosphorylated | No binding | –
H4 K5ac (4-24): histone H4 peptide 4-24, K5ac | No binding | –
H4 K16ac (4-24): histone H4 peptide 4-24, K16ac | No binding | –
SKNAKKKNNKKTSKNKSS [AIL (1545-1562)] | No binding | –

Next, values leading:

Binding by ITC, result in words (printed in column N) | Kd (μM) (mean and s.d. of experiments in triplicate) | Substance
No binding | – | H3 K4me3 (1-20): histone H3 peptide 1-20, K4me3
No binding | – | H3 K9ac (1-20): histone H3 peptide 1-20, K9ac
– | large | H3 K18ac (1-20): histone H3 peptide 1-20, K18ac
No binding | – | H3 S10pho (1-20): histone H3 peptide 1-20, S10 phosphorylated

Reference: article PMC6914384 (Nature, 2018)
